Assay results from patent US8658382B2, “Proteins with pteridine glycosyltransferase activity and analysis method using the same” (Inje University Industry-Academic Cooperation Foundation, priority 2008, dated 2014).
“Also recorded” adds a separate entry of the source. Blank lines part the entries; values can stand above or below the molecule they belong to.

How the values were obtained:
[1] = tested on: BGluT; test: Pteridines as substrate or competitive inhibitor of the BGluT reaction; format: biochemical, Synechococcus sp. PCC 7942; conditions: for glucosylated product formed from the pteridine as substrate of BGluT: pteridine concentration increased to 5 μM, data not shown
Experimental: Unless otherwise specified, the following standard reaction conditions were used for the determination of tetrahydrobiopterin and its oxidized forms. Reactions were carried out in a final volume of 100 μl, which consisted of 50 mM Tris-HCl (pH 7.5), 10 mM MgCl2, 0.05% ascorbic acid, 500 μM UDP-glucose, 1 μg of BGluT, and an aliquot of pteridines or tissue extracts. The reaction mixture was incubated for 20 minutes at 37° C. and then mixed with 30 μl of acidic iodine solution (2% KIM % I2 in 1 N HCl). After 1 hour in the dark at room temperature, the oxidized mixture was centrifuged. The supernatant was mixed with 10 μl of 5% ascorbic acid and then neutralized with 30 μl of 1 N NaOH for injection to HPLC.
(§1) The HPLC system consisted of Gilson 321 pump, Gilson 234 autoinjector, a fluorescence detector (Schimadzu RF-10AXL), and a system software (Gilson Unipoint version 5.11). Chromatography was performed on a guard column (10 μm, 4.3 mm×1 cm) and an Inertsil ODS-3 (5 μm, 150×2.3 mm, GL Science, Japan) equilibrated with 10 mM potassium phosphate buffer (pH 6.0) at room temperature. Pteridines were eluted isocratically at a flow rate of 1.2 ml/min and monitored at 350/450 nm (excitation/emission). Pteridine peaks were identified and quantified using authentic pteridines, which were purchased from Dr. B. Schirck's Lab (Jona, Switzerland). Biopterin-glucoside was isolated from Synechococcus sp. PCC 7942 (Y. K. Choi, Y. K. Hwang, Y. H. Kang, Y. S. Park, Chemical structure of 1-O-(L-erythro-biopterin-2′-yl)-alpha-glucose isolated from a cyanobacterium Synechococcus sp. PCC 7942, Pteridines, 12 (2001) 121-125).
To determine whether the presence of dihydrobiopterin, structurally similar to tetrahydrobiopterin, interferes with glucosylation of tetrahydrobiopterin, 1 μM of dihydrobiopterin was added to the same mixture for enzyme reaction as in FIG. 1B, which was then oxidized under acidic condition.
Biological samples contain tetrahydrobiopterin as well as its oxidized forms (dihydrobiopterin and bipterin). In order to quantitatively analyze only tetrahydrobiopterin selectively using BGluT, the BGluT reaction should be specific to tetrahydrobiopterin, without being interfered by its oxidized forms. Using various pteridines (dihydrobiopterin, biopterin, neopterin, tetrahydroneopterin, and isomers thereof) as a substrate, potential inhibitory effect was evaluated. […] It therefore was suspected that dihydrobiopterin might function as a competitive inhibitor in glucosylation of tetrahydrobiopterin by BGluT.
However, when the concentration of dihydrobiopterin is higher than tetrahydrobiopterin, dihydrobiopterin could show inhibitory effects. In order to examine whether dihydrobiopterin interferes with the BGluT reaction, dihydrobiopterin was coincubated under the standard reaction condition with a fixed amount (0.25 μM) of tetrahydrobiopterin, along with increasing concentrations of dihydrobiopterin up to 4-fold (0.05˜1 μM) (see FIG. 4). In FIG. 4, the X-axis represents concentrations of dihydrobiopterin added to the reaction solution and the Y-axis represents peak areas of the glucosylated product produced from tetrahydrobiopterin. The results thereof show means±standard deviations of the peak areas of biopterin-glucoside, which were obtained from triplicate assays. […] In general, the concentrations of the oxidized forms of tetrahydrobiopterin in a biological sample are not higher than that of tetrahydrobiopterin.
In order to examine whether the added dihydrobiopterin has been glucosylated even in small amount, the peak areas of biopterin originated from the dihydrobiopterin (X-axis) were compared with those determined from the same concentration of dihydrobiopterin without enzyme reaction (Y-axis) (FIG. 4 (insert)). The slope obtained from regression line was almost 1.

[2] = Pteridine glycosyltransferase activity with human urine; format: biochemical; conditions: 1 μg protein, 10 μl human urine in 100 μl, FIG. 12
Experimental: Also, 1 μg of each protein was added to 100 μl of reaction solution containing 10 μl of human urine instead of tetrahydrobiopterin. The reaction mixture was incubated at for 20 minutes. For CY-49, 500 μM UDP-xylose was added as a substrate; and for other enzymes, UDP-glucose was added. Other reaction conditions were the same as in the above.

[3] = Analysis of protein activity of the recombinant proteins with UDP-glycosides; format: biochemical; conditions: for pteridine glycosyltransferase activity (sugar bound to tetrahydrobiopterin): 1 μM tetrahydrobiopterin, 500 μM UDP-glycoside, HPLC, FIG. 10
Experimental: The protein activity was assayed in 100 μl of reaction mixture having the following composition: 50 mM Tris-HCl (pH 7.5), 10 mM MgCl2, 0.2% ascorbic acid, 1 μM tetrahydrobiopterin, 500 μM UDP-glycoside (one of UDP-glucose, UDP-galactose, UDP-xylose, UDP-glucuronic acid, UDP-galacturonic acid, UDP-N-acetylglucosamine, and UDP-N-acetylgalactosamine) and an appropriate amount of the purified recombinant protein. The reaction was performed at 37 for 10-60 minutes depending on an amount of protein. 30 μl of acidic iodine solution (2%/1% KI/I2 in 1 M HCl) was added to the reaction mixture and allowed in darkness for 1 hour for oxidation thereof. The mixture was centrifuged to recover the supernatant, which was then mixed with 10 μl of 5% ascorbic acid. 30 μl of 1N NaOH was added to the resulting mixture for neutralization and then HPLC analysis was carried out.
as §1, with “HPLC” for “The HPLC”, “quantified by” for “quantified”

[4] = Characterization of enzyme activity by amount of protein, compared with BGluT; format: biochemical; conditions: production of tetrahydrobiopterin-glycoside by amount of protein (0.05-1.0 μg), FIG. 11
Experimental: The enzymatic activities for the isolated proteins were compared with that of BGluT. First, production profiles of tetrahydrobiopterin(BH4)-glucoside produced according to amounts of the proteins was compared with that of BGluT. The enzyme activities were represented as a percentage to all converted amounts. The reaction condition was as follows. That is, reactions were performed in a final volume of 100 μl, which consisted of 50 mM Tris-HCl (pH 7.5), 10 mM MgCl2, 0.05% ascorbic acid, 1 μM tetrahydrobiopterin, 500 μM UDP-glucose or UDP-xylose, and a protein (0.05-1.0 μg). The reaction mixture was incubated at 37 for 20 minutes. 30 μl of acidic iodine solution (2%/1% KI/I2 in 1 M HCl) was added thereto in darkness for 1 hour at room temperature, so as to oxidize the reaction mixture. After centrifugation, the resulting supernatant was mixed with 10 μl of 5% ascorbic acid and neutralized with 30 μl of 1N NaOH for injection to HPLC.

- slope of regression line, biopterin from dihydrobiopterin with BGluT against without enzyme reaction ([1]; FIG. 4 (insert)): ~1
Molecule: C[C@H](O)[C@H](O)C1=Nc2c(nc(N)[nH]c2=O)NC1 [dihydrobiopterin]
- slope of regression line, biopterin-glucoside peak area against dihydrobiopterin concentration ([1]; 0.25 μM tetrahydrobiopterin, 0.05~1 μM dihydrobiopterin, standard reaction condition, FIG. 4): zero
- effect of added dihydrobiopterin on glucosylation of tetrahydrobiopterin ([1]; 1 μM dihydrobiopterin added, FIG. 1C): no significant difference in the amounts of glucosylated products of tetrahydrobiopterin
- glucosylated product formed from the pteridine as substrate of BGluT [1]: a small amount of glucosylated product

Molecule: Nc1nc2ncc([C@H](O)[C@H](O)CO)nc2c(=O)[nH]1 [neopterin]
- glucosylated product formed from the pteridine as substrate of BGluT [1]: only dihydrobiopterin among the pteridines showed

Molecule: Nc1nc2c(c(=O)[nH]1)NC(C(O)C(O)CO)CN2 (stereo not drawn) [tetrahydroneopterin]
- glucosylated product formed from the pteridine as substrate of BGluT [1]: only dihydrobiopterin among the pteridines showed

Molecule: biopterin
- glucosylated product formed from the pteridine as substrate of BGluT [1]: only dihydrobiopterin among the pteridines showed

- HPLC chromatogram of the reaction mixture with human urine [2]: very similar to that of BGluT
B1: UICB: recombinant pteridine glycosyltransferase from unidentified wild cyanobacteria B, amino acid SEQ ID NO 5 (protein)
chain: LSRKLLFLSTPVGFLGSGDGGGVELTIYNLARTLNKQGYAVRVAAPEASQLQDIPLITMAGNAQISAQSQGREAPILMPENAVLANMWHYAQQVQKQYDLIVNFAYDWLPFYLTPFFATPVAHLVSMASVSLAMDHINEKTYSNFPHLLAFHTLAQAETFSLSPPYRCLANGLDVSLYQFRDDPSPCLAWVGRIAPEKALEDAIAACQQLGVPLRVFGHISDPLYWQNSQDTYSFDLVDYRGFLPTGSLQKELGDCFGLLMTPRWVEAFGNVAIEALACGVPVVAYRRGGPVEIIEEGKTGFLVEPDSIEGLVTGIKNLDRIDRYSCRAVVEQKYSLEASANRAINWFEEIFARKK
modifications: Unidentified cyanobacteria sp.
- Substrate for glucosylation [3]: Glucose
- pteridine glycosyltransferase activity (sugar bound to tetrahydrobiopterin) [3]: an activity for binding glucose to tetrahydrobiopterin

- activity compared with BGluT [4]: higher activities than BGluT
B2: CY-49: recombinant pteridine glycosyltransferase from Spirulina maxima CY-49, amino acid SEQ ID NO 3, transfers xylose (protein)
chain: MPQKSWKLLFISTPVGPLGSGLGGGVELTLLNMAKALHSRGHDITVVAPSGSVLESLSVIEISGKLQPIAQNQDRDSLITIPENSVLGNMWEYGRQVQTNYHAIVNFAFDWLPFYLTPFFPTPIAHWVSMGSLISALDQIVVEVMKQFPGTVGFYSHTQAATFGSDLGYACLGSGLEMDRYQFCDQPHQQLAWMGRISPEKGLEDAIAAADKTGIPLAIFGKIQDEQYWQNILNTYPNAPLNYRGFLNTDELQQGLRECRGLLMTHRWVEAFGNVAIEALACGVPVISYRRGGPAEIVRDGETGWLVEPDSVTGLVDAIAKLEQIDRRQCRALAEKEYSLVALGDRLETWLSDVIALKN
modifications: Spirulina maxima CY-49
- HPLC chromatogram of the reaction mixture with human urine [2]: showed the peak of biopterin-xylose, instead of biopterin-glucose
- Substrate for glucosylation [3]: Xylose
- pteridine glycosyltransferase activity (sugar bound to tetrahydrobiopterin) [3]: an activity for binding xylose to tetrahydrobiopterin

- HPLC chromatogram of the reaction mixture with human urine [2]: very similar to that of BGluT
B3: UICA: recombinant pteridine glycosyltransferase from unidentified wild cyanobacteria A, amino acid SEQ ID NO 4 (protein)
chain: LSRKLLFLSTPVGFLGSGGGGGVELTIYNLARTLNKQGYAVRVVAPEASQLQDIPLITIAGNAQISAQSQDREAPILIPENAVLANMWHYAQQVQNEYDLIVNFAYDWLPFYLTPFFATPVAHLVSMASVSLAMDNIIQKTYRSFPHSLAFHTVTQAETFSLSPPYRRLANGLDVSLYQFRADPSPCLAWVGRIAPEKALEGAIAACQQLGVPLRVFGHISNPLYWQNLQDTYSFDLVDYRGFLPTGSLQKELGDCFGLLMTPGWVEAFGNVAIEALACGVPVVAYRRGGPVEIIEEGKTGFLVEPDSIEGLVTGIKNLDRIDRYSCRAVVEQKYSLEALANRAINWFDEIFARKK
modifications: Unidentified cyanobacteria sp.
- Substrate for glucosylation [3]: Glucose
- pteridine glycosyltransferase activity (sugar bound to tetrahydrobiopterin) [3]: an activity for binding glucose to tetrahydrobiopterin

- HPLC chromatogram of the reaction mixture with human urine [2]: very similar to that of BGluT
B4: CY-7: recombinant pteridine glycosyltransferase from Spirulina platensis CY-7, amino acid SEQ ID NO 2 (protein)
chain: MTPTSWKLLFISTPVGPLGSGLGGGVELTLLNMAKALKSRGHDITVVAPSGSVLESLSIIEIPGELQPIAQNQDRDSLITIPENSVLGNMWEYGRQVQTNYHAIVNFAFDWLPFYLTPFFDTPIAHCVSMASLISALDQIVGQVMKQFPGTVGFHSHTQAATFGSDLDYACLGSGLEMERYQFCEQPHQQLAWMGRISPEKGLEDAIAAADKTGIPLEIFGKIQDDQYWQNILNTYPNAPLNYRGFLNTDELQQGLRQCRGLLMTHRWVEAFGNVAIEALACGVPVISYRRGGPAEIVRDGETGWLVEPDSVTGLVDAIAKFEQIDRRQCRAVAEKEYSLAALGDRLEKWLSDVTRLKN
modifications: Spirulina platensis CY-7
- activity compared with BGluT [4]: higher activities than BGluT; also recorded: more excellent activity than BGluT
- Substrate for glucosylation [3]: Glucose
- pteridine glycosyltransferase activity (sugar bound to tetrahydrobiopterin) [3]: an activity for binding glucose to tetrahydrobiopterin
